Laboratory results taken from the nanobody polyreactivity screen of Harvey et al. (2022).

Experiment: yeast display, Sf9 membrane polyspecificity reagent, FACS + sequencing; frameworks hold sequencing errors
Summary of the method: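 Synthetic nanobody libraries on Saccharomyces cerevisiae BJ5465 were galactose-induced for 36–48 hours, stained 1 hour at 4 °C with 10% biotinylated, detergent-solubilized Sf9 membrane reagent and enriched on streptavidin microbeads. FACS then separated cells into low and high (top ~1%) gates by anti-HA (expression) and streptavidin (reagent binding) fluorescence. Genes were colony-PCR amplified, MiSeq 2 × 250 sequenced and CDR-length filtered. A clone's polyreactivity label is that of its gate of origin.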
With “QVQLVESGVGLVQAGGSLRLSCAASGFIFYYYAMGWYRQAPGKERELVAAISTDGGSTYYADSVKGRFTISRDNAKNTVYLQMNSLKPEDTAVYYCNAPYYGWGYWPLEYIRYEYWGQGTQVTVST” the “polyreactivity (PSR sort gate)” value was “low polyreactivity”. In the case of “QVQLVESGGGLVQAGGRLLLSCAASGLTFYEYAMGWYRQAHGKERELVADIDFNGGSTSYAYSVKGRFTISRDNAKNTVYLQMNSLKPEDTAVYYCNTRDRGDVVTGLDYSGQGTQVTVSS”, the “polyreactivity (PSR sort gate)” value is reported as “low polyreactivity”. For “QVQLVESGGGLVQAGGSLRLSCAASGRIFYFNAMGWYRPAPGKDRELVADISSGGRTNYADSVKGRFTISRDNAKNTVYLQMNSLKPEDTAVYYCNAEAYTSSGGYRGYDFDYWGQGTQVTVSS”, the “polyreactivity (PSR sort gate)” value was “low polyreactivity”. For “QVQLVESGGGLFQEGGSLRLSCAPSGSTLVFYAMGWYRHAPGKERELVAAITRSGGSTYYADSVKGRFTISRDNAKNTVYLQRNSLKPEDTAVYNCAADERYINERVSWGQGTQVTVSS”, the “polyreactivity (PSR sort gate)” value was “low polyreactivity”. For “QVQLVESGGGLVQAGGSLRLSCAASGSTFKHNTMGWYRQAPGKERELVAAITSSGGTYYADSVKGRFTISRDNAKNTVYLQMNSLKPEDTAVYYCAARVTYRGRAYDYWGQGTQVTVSS”, the “polyreactivity (PSR sort gate)” value was “high polyreactivity”. In the case of “QVQLVESGGGLVQAGGSLRLSCAASGRTFTVYAMGGSRQAPGKERELVAGIRRGDSTYYADSVKGRFTISRDNAKNSVDFQMNSLKPEDTAVYYCNARSSGRSYYYWGQGTQVTVSS”, the “polyreactivity (PSR sort gate)” value is reported as “high polyreactivity”. With “QVQLVESGGGLVQAGGSLRLSCAASGSTFDGNAMGWYRQAPGKERELVAAITSGGSTNYADSVKGRFTISRDNAKNTVYLQMNSLKPEDTAVYYCAADTVSFSILYDYWGQGTQVTVSS” the “polyreactivity (PSR sort gate)” value was “low polyreactivity”. With “QVQLVESGGGLVQAGGSLRLSCAASGLTFTKNVMGWYRQAPGKERELVAVISRSGGSTYYADSVKGRFTISRDNAKNTVYLQMNSLKPEDTAVYYCNVKGPGPSRGNYWGQGTQVTVSS” the “polyreactivity (PSR sort gate)” value was “low polyreactivity”. In the case of “QVQLVESGGGLVQAGGSLRLSCPAYGYTILPNAMGWYRQAPGKEREFVAAISYSGGRTYYADSVKGRFTISRDNAKNTVYLQMNSLKPEDTAVYYCATELYGYRYDYWGQGTQVTVSS”, the “polyreactivity (PSR sort gate)” value is reported as “low polyreactivity”. For “QVQLVESGGGLVQAGGSLRLSCAASGSTFPVYAMGWYRQAPGKERELVAAISWRGDSTYYADSVKGRFTISRDNAKNTVYLQMNSLKPEDTAVYYCAASTGSVVRRYYYWGQGTQVTVSS”, the “polyreactivity (PSR sort gate)” value was “high polyreactivity”. With “KVQLVESGGGLVQAGGSLRLSCAASGRIFYYNAMGWYRQAPGKERELVAVITGGGSTNYADSVKGRFTISRDNAKNTVYLQMNSLKPEDTAGYYCAARRAWGTKYHGYDYWGQGTQVNVSS” the “polyreactivity (PSR sort gate)” value was “low polyreactivity”. For “QVQLVESGGGLVQAGGSLRLSCAASGRIFTTYAMGWYRQEPGKERELVAAISQNGGSTYYADSVKGRFTISRDNAKNTVYLQMNTLKPEDTAVYYCAAADYYGIRDLYASDGTHYYSWGQGTQVTVSS”, the “polyreactivity (PSR sort gate)” value was “low polyreactivity”. With “QVQLVESGGGLVQAGGSLRLSCAASGIIFGYYARGWYRQAPGKARELVAAISRGGNTNYADSVKGRFTISRDNAKNTVYLQMNSLKPEDTAVYYCAADFWSRIKYFYAVDVDYWGQGTQVTVSS” the “polyreactivity (PSR sort gate)” value was “low polyreactivity”. For “QGQLVESGGGLVQAGGSLRLSCAASGRIFVPYGMGWYRQAPGKERELVAAITTGGSTNYADSVKGRFTISRDNAKNTVYLQMNSLKPEDTAVYYCAVDWYPQLIYSFNSELEYWGQGTQVTVSS”, the “polyreactivity (PSR sort gate)” value was “low polyreactivity”. In the case of “QVQLVESGGGLVQAGGSLRLSCAASGRTFRYNTMGWYRQAPGTERELVATITGSGGSTYYADSVKGRFTISRDNAKNTVYLQMNSLKPEDTAVYYCNALFRLRAYAEMDYWGQGTQVTVSS”, the “polyreactivity (PSR sort gate)” value is reported as “high polyreactivity”. For “QVQLVESGGGLVQAGGSLRLSCAASGRTFRGNAMGWYRQAPGKERELVAVITSGDSTYYADSVKGRFTISRDNAKNTVYLQMNSLKPEDTAVYYCATKSRFSRGKAYYYWGQGTQVTVSS”, the “polyreactivity (PSR sort gate)” value was “high polyreactivity”. With “QVQLVESGGGLVQAGGSLRLSCAASGFTFFRYAMGWYRQAPGKERELVAAISWSGGRTYYADSVKGRFTISRDNAKNTVYLQMNSLKPEDTAVYYCAVDYYRSGLHYDSWGQGTQVTVSS” the “polyreactivity (PSR sort gate)” value was “high polyreactivity”.
